For experiment [1], the target named is T1, WDR5^22-334 (human, UniProt P61964 22-334). Nature of the experiment: ITC. On the technique in general: Isothermal titration calorimetry measures the heat released or taken up as one component is titrated into another.
The target in experiment [2] is T1, WDR5^22-334. Nature of the experiment: ITC. This is another data set of the same source.

In general, Kd refers to the concentration at which binding is half-saturated.

SSRRSSHYPAAVQSQAAAERGASATAKSRAISI [PTENα-NTE^116-148 peptide]: in the experiment with WDR5^22-334 [1], the “Kd against the 1:1 mixture of WDR5^22-334 and H3^1-15” value amounted to 32 ± 3 µM. Besides, the dissociation constant Kd in the experiment with WDR5^22-334 [2] is 3.8 µM.

(Values after article doi:10.1101/2023.12.09.570908 (bioRxiv, 2023).)
